This passage reports ΔF (rate of Hsp90 binding, fluorescence increase) results from article PMC6208366.

The experiment concerns the target IANBD-labeled Hsp90 M362C (human). Put plainly: stopped-flow fluorescence; IANBD-labeled Hsp90 M362C (1 µM) mixed with equal volumes of FKBP51, FK1-FK2, FK2-TPR or buffer, pseudo-first-order, 37 °C, 25 mM sodium phosphate/300 mM NaCl pH 7.2; rates as fluorescence increase at 20 s.

B1: full-length human FKBP51 (natural protein)
chain: MTTDEGAKNNEESPTATVAEQGEDITSKKDRGVLKIVKRVGNGEETPMIGDKVYVHYKGKLSNGKKFDSSHDRNEPFVFSLGKGQVIKAWDIGVATMKKGEICHLLCKPEYAYGSAGSLPKIPSNATLFFEIELLDFKGEDLFEDGGIIRRTKRKGEGYSNPNEGATVEIHLEGRCGGRMFDCRDVAFTVGEGEDHDIPIGIDKALEKMQREEQCILYLGPRYGFGEAGKPKFGIEPNAELIYEVTLKSFEKAKESWEMDTKEKLEQAAIVKEKGTVYFKGGKYMQAVIQYGKIVSWLEMEYGLSEKESKASESFLLAAFLNLAMCYLKLREYTKAVECCDKALGLDSANEKGLYRRGEAQLLMNEFESAKGDFEKVLEVNPQNKAARLQISMCQKKAKEHNERDRRIYANMFKKFAEQDAKEEANKAMGKKTSEGVTNEKGTDSQAMEEEKPEGHV
On to B1, for which the ΔF (rate of Hsp90 binding, fluorescence increase) is 0.0021 s⁻¹.
